Laboratory results from US20230184768A1 (MESO SCALE TECHNOLOGIES, published 2023).

Biological target: T1, labeled ACE2 (angiotensin-converting enzyme 2) (human, UniProt Q9BYF1 18-740)
T1 construct: also called ACE2 detection reagent
Experiment: labeled ACE2 on immobilized Mixed Panel, ECL

T1 sequence (Q9BYF1 18-740 limits assumed): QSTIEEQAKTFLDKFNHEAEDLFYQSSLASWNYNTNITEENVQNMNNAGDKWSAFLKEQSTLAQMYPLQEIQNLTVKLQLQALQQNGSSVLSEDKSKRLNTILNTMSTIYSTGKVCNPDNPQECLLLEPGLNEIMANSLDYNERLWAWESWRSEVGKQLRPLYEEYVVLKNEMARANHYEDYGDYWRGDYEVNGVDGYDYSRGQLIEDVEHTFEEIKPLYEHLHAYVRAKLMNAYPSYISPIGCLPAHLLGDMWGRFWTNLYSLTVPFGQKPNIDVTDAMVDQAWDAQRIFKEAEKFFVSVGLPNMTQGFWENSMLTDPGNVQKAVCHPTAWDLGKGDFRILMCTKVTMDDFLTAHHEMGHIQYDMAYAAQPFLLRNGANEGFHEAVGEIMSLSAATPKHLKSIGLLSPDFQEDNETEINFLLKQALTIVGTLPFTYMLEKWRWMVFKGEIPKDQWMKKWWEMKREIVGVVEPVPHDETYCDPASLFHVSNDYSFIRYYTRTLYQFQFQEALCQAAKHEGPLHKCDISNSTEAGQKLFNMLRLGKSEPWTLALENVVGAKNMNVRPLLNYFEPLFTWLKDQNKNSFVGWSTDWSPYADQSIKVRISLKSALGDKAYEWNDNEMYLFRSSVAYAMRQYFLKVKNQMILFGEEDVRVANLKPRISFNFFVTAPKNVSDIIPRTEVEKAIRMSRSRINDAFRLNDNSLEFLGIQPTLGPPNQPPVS

B1: HCoV-HKU1 S protein (other)
chain: AVIGDFNCTNFAINDLNTTVPRISEYVVDVSYGLGTYYILDRVYLNTTILFTGYFPKSGANFRDLSLKGTTYLSTLWYQKPFLSDFNNGIFSRVKNTKLYVNKTLYSEFSTIVIGSVFINNSYTIVVQPHNGVLEITACQYTMCEYPHTICKSKGSSRNESWHFDKSEPLCLFKKNFTYNVSTDWLYFHFYQERGTFYAYYADSGMPTTFLFSLYLGTLLSHYYVLPLTCNAISSNTDNETLQYWVTPLSKRQYLLKFDNRGVITNAVDCSSSFFSEIQCKTKSLLPNTGVYDLSGFTVKPVATVHRRIPDLPDCDIDKWLNNFNVPSPLNWERKIFSNCNFNLSTLLRLVHTDSFSCNNFDESKIYGSCFKSIVLDKFAIPNSRRSDLQLGSSGFLQSSNYKIDTTSSSCQLYYSLPAINVTINNYNPSSWNRRYGFNNFNLSSHSVVYSRYCFSVNNTFCPCAKPSFASSCKSHKPPSASCPIGTNYRSCESTTVLDHTDWCRCSCLPDPITAYDPRSCSQKKSLVGVGEHCAGFGVDEEKCGVLDGSYNVSCLCSTDAFLGWSYDTCVSNNRCNIFSNFILNGINSGTTCSNDLLQPNTEVFTDVCVDYDLYGITGQGIFKEVSAVYYNSWQNLLYDSNGNIIGFKDFVTNKTYNIFPCYAGRVSAAFHQNASSLALLYRNLKCSYVLNNISLTTQPYFDSYLGCVFNADNLTDYSVSSCALRMGSGFCVDYNSPSSSSSRRKRRSISASYRFVTFEPFNVSFVNDSIESVGGLYEIKIPTNFTIVGQEEFIQTNSPKVTIDCSLFVCSNYAACHDLLSEYGTFCDNINSILDEVNGLLDTTQLHVADTLMQGVTLSSNLNTNLHFDVDNINFKSLVGCLGPHCGSSSRSFFEDLLFDKVKLSDVGFVEAYNNCTGGSEIRDLLCVQSFNGIKVLPPILSESQISGYTTAATVAAMFPPWSAAAGIPFSLNVQYRINGLGVTMDVLNKNQKLIATAFNNALLSIQNGFSATNSALAKIQSVVNSNAQALNSLLQQLFNKFGAISSSLQEILSRLDALEAQVQIDRLINGRLTALNAYVSQQLSDISLVKFGAALAMEKVNECVKSQSPRINFCGNGNHILSLVQNAPYGLLFMHFSYKPISFKTVLVSPGLCISGDVGIAPKQGYFIKHNDHWMFTGSSYYYPEPISDKNVVFMNTCSVNFTKAPLVYLNHSVPKLSDFESELSHWFKNQTSIAPNLTLNLHTINATFLDLYYEMNLIQES
notes: also called HCoV-HKU1 spike protein
B1: no binding.
